Assays:
[1] = target: HIV-1 MN gp120 (HIV-1 MN) (UniProt P05877); test: ELISA of hybridoma supernatant on membranes of MN-infected against uninfected H9 cells
[2] = target: HIV-1 RF gp120 (HIV-1 RF) (UniProt P04579); test: cell-based or functional assay
[3] = target: HIV-1 IIIB gp120 (HIV-1 IIIB) (UniProt P03375); test: cell-based or functional assay
[4] = target: HIV-1 MN gp120 (HIV-1 MN) (UniProt P05877); test: cell-based or functional assay
[5] = target: HIV-1 MN gp120 (HIV-1 MN) (UniProt P05877); test: RIA of hybridoma supernatant on live HIV-1MN-infected against uninfected H9 cells, 125I rabbit anti-mouse IgG

Chain of UniProt P04579 (P04579 32-865): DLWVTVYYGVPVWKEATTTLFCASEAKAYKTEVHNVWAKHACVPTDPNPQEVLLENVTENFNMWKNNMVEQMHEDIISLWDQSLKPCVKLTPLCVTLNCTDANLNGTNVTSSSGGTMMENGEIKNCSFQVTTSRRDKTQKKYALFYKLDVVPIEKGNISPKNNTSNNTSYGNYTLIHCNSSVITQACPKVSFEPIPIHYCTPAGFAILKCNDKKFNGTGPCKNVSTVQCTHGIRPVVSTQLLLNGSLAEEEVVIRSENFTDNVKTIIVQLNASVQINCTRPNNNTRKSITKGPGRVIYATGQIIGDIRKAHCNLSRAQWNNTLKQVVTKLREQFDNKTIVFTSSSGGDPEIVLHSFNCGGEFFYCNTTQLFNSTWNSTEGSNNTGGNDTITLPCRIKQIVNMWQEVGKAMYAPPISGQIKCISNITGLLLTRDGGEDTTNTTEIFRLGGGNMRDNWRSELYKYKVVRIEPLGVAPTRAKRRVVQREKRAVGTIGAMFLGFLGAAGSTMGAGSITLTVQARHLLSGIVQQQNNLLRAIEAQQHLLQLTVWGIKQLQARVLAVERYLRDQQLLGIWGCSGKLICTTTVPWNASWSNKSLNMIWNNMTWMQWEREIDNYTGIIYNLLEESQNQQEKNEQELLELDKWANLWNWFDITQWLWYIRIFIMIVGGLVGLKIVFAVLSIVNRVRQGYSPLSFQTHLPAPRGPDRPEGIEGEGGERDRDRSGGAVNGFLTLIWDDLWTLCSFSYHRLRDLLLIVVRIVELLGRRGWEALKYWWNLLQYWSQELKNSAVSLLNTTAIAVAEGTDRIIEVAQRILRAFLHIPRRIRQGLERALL
Chain of UniProt P05877 (P05877 32-856): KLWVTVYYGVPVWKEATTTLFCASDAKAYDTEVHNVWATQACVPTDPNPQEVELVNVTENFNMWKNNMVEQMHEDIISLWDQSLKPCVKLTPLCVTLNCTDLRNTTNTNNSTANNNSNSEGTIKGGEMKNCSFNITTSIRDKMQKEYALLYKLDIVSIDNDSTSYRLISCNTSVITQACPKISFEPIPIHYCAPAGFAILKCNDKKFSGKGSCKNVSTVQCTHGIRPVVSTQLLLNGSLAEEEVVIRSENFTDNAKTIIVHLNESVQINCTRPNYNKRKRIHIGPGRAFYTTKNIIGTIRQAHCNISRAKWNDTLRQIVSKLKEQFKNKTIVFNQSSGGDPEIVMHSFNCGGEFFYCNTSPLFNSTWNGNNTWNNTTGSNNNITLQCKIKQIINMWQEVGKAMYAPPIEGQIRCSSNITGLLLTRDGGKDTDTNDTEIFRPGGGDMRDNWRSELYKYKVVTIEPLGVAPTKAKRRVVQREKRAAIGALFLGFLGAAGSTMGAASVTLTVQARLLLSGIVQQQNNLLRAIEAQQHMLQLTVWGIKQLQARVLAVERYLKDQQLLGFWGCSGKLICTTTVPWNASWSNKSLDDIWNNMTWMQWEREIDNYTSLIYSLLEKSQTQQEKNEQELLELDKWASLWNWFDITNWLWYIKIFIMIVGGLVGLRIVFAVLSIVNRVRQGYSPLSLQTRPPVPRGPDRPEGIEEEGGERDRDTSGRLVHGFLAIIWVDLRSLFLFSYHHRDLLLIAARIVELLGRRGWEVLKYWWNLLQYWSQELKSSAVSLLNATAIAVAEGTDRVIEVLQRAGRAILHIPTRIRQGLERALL

## monoclonal antibody NM-01
[1]
  ELISA ratio, infected cell membranes to uninfected cell membranes (Run 1): 5.76
[2]
  ID50, live RF virus, reverse transcriptase assay: 0.05 µg/mL
  ID50, syncytium formation by RF-infected cells: 4 µg/mL
  percent inhibition of syncytium formation by RF-infected cells at 25 µg antibody: 59%
[3]
  ID50, live IIIB virus, MT-2 assay: 0.1 µg/mL
  ID50, live IIIB virus, reverse transcriptase assay: 0.1 µg/mL
  ID50, syncytium formation by IIIB-infected H9 cells with C8166 cells: 3 µg/mL
  percent inhibition of syncytium formation by IIIB-infected cells at 25 µg antibody: 85%
[4]
  ID50, live MN virus, MT-2 assay: 2 µg/mL
  ID50, live MN virus, reverse transcriptase assay: < 1 µg/mL
  ID50, syncytium formation by MN-infected H9 cells with C8166 cells: 2 µg/mL
  percent inhibition of syncytium formation by MN-infected cells at 25 µg antibody: 85%
[5]
  RIA Ratio cpm inf/cpm uninf: 9.81

Source: patent publication EP0554446B1
